{"source": "patent US9907791B2", "about": "“Ron inhibitors for use in preventing and treating bone loss” (UNIVERSITY OF UTAH RESEARCH FOUNDATION, priority 2014, dated 2018)", "molecules": {"B1": {"name": "MSP: recombinant human macrophage-stimulating protein, the RON ligand (protein)", "chain": "QRSPLNDFQVLRGTELQHLLHAVVPGPWQEDVADAEECAGRCGPLMDCRAFHYNVSSHGCQLLPWTQHSPHTRLRRSGRCDLFQKKDYVRTCIMNNGVGYRGTMATTVGGLPCQAWSHKFPNDHKYTPTLRNGLEENFCRNPDGDPGGPWCYTTDPAVRFQSCGIKSCREAACVWCNGEEYRGAVDRTESGRECQRWDLQHPHQHPFEPGKFLDQGLDDNYCRNPDGSERPWCYTTDPQIEREFCDLPRCGSEAQPRQEATTVSCFRGKGEGYRGTANTTTAGVPCQRWDAQIPHQHRFTPEKYACKDLRENFCRNPDGSEAPWCFTLRPGMRAAFCYQIRRCTDDVRPQDCYHGAGEQYRGTVSKTRKGVQCQRWSAETPHKPQFTFTSEPHAQLEENFCRNPDGDSHGPWCYTMDPRTPFDYCALRRCADDQPPSILDPPDQVQFEKCGKRVDRLDQRRSKLRVVGGHPGNSPWTVSLRNRQGQHFCGGSLVKEQWILTARQCFSSCHMPLTGYEVWLGTLFQNPQHGEPSLQRVPVAKMVCGPSGSQLVLLKLERSVTLNQRVALICLPPEWYVVPPGTKCEIAGWGETKGTGNDTVLNVALLNVISNQECNIKHRGRVRESEMCTEGLLAPVGACEGDYGGPLACFTHNCWVLEGIIIPNRVCARSRWPAVFTRVSVFVDWIHKVMRLG", "modifications": "left off: small tags and cut ends", "notes": "recombinant human macrophage-stimulating protein, the RON ligand"}}, "type_in_all_cases": "cell-based, mice", "key": {"[1]": {"test_system": "c-Src", "assay": "Western blot of osteoclast lysates, phospho-Src", "method": "Cells were serum starved (0.5% FBS) for 3 hours prior to lysate collection. Inhibitors were added 1 hour prior to lysis and MSP was added 15 min prior to lysis when indicated. Cells were washed with 1×PBS and harvested in lysis buffer (25 mM Tris-HCl, pH 7.5, 0.42 M NaCl, 1.5 mM MgCl2, 0.5 mM EDTA, 1 mM DTT, 25% sucrose, and 0.1% Triton X-100) plus 100× protease arrest (Bioscience, Bozeman, Mont.) and 100× orthovanadate. Primary antibodies used for immunoblotting include: anti-MSP (Santa Cruz, sc-6090, Dallas, Tex.) at a 1:250 dilution, anti-pan Akt (Cell Signaling, #4691S, Beverly, Mass.) at a 1:1000 dilution, anti-pan Erk (Cell Signaling, #4695, Beverly, Mass.) at a 1:1000 dilution, anti-phospho Akt (Cell Signaling, #9271 L, Beverly, Mass.) at a 1:500 dilution, anti-phospho Erk (Cell Signaling, #4370S, Beverly, Mass.) at a 1:500 dilution, anti-Src (Cell Signaling, #2110, Beverly, Mass.) at a 1:500 dilution, and anti-phospho Src (Y416) (Cell Signaling, #2113, Beverly, Mass.) at a 1:500 dilution. The secondary antibodies used were HRP-conjugated anti-goat IgG (Santa Cruz, Dallas, Tex.) and anti-rabbit IgG (Santa Cruz, Dallas, Tex.). Chemiluminescent signals were detected using Immun-Star HRP (BioRad, Hercules, Calif.)."}, "[2]": {"test_system": "bone marrow osteoclasts", "assay": "Osteoclast survival assay", "conditions": "100 pg/mL MSP daily from day 7 for 48 hours", "method": "(§1) Bone marrow precursor cells were thawed and seeded at a density of 2×10^5 cells per well in a 24-well plate containing glass coverslips in α-MEM media containing 10% FBS and antibiotics. After adhering overnight, media was removed and media containing 33 ng/mL hM-CSF and 9 ng/mL muRANKL was added. Cells were allowed to differentiate for 7 days with media changed every 3 days. Coverslips were then imaged microscopically using phase contrast to determine osteoclast number in each well. To test survival, factor-containing media was removed and α-MEM media containing 10% FBS was added as well as MSP as indicated. Cells were cultured for an additional 48 hours, fixed with 10% NBF for 10 minutes and washed with 1×PBS. For TRAP fluorescent staining, the leukocyte acid phosphatase kit (Sigma, St. Louis, Mo.) was used according to the manufacturer's instructions, with the substitution of 200 μM ELF97 (Invitrogen, Waltham, Mass.) as a phosphatase substrate. Coverslips were incubated in TRAP solution for 15 minutes at 37 degrees, washed with 1×PBS and counterstained with DAPI. The number of multinucleated TRAP+ cells (containing 4 or more nuclei) within 5 representative fields were included for quantification. Experiments were performed in triplicate."}, "[3]": {"test_system": "bone marrow osteoclasts", "assay": "Osteoclast resorption assay", "conditions": "100 pg/mL MSP daily day 9 to 12", "method": "Bone marrow osteoclasts were generated from 6 to 8 week old WT and RonTK−/− mice. Briefly, bone marrow was isolated from hindlimb bones and plated in α-MEM media containing 10% heat-inactivated fetal bovine serum (FBS, Sigma, St. Louis, Mo.), 100 units/mL penicillin-streptomycin (Hyclone), and 33 ng/mL human macrophage colony-stimulating factor (hM-CSF) (PeproTech, Rocky Hill, N.J.) for 24 hours. Non-adherent cells were collected and frozen for later use. To assess resorption activity, bone marrow precursor cells were thawed and seeded at a density of 1×10^5 cells per well in BioCoat Osteologic slides (BD Biosciences, San Jose, Calif.) in α-MEM media containing 10% FBS and antibiotics. After adhering overnight, media was removed and media containing 33 ng/mL hM-CSF and 9 ng/mL muRANKL (R & D systems, Minneapolis, Minn.) was added. The medium was changed every 3 days depending on acidification, and the assay was terminated as indicated. Recombinant human MSP was prepared and added daily as indicated. Cells were removed with 6% bleach and slides were viewed microscopically using phase-contrast with 20× magnification. Osteolytic resorption area within 5 representative fields was determined using Image J software, experiments were performed in triplicate. Recombinant MSP was prepared as follows (to be described in detail elsewhere): Concentrated, serum-free media from an MCF7 cell line engineered to overexpress MSP was cleaved with kallikrein (Invitrogen, Waltham, Mass.; 4 ng of kallikrein/1 μg of supernatant protein at 37° C. for 2.5 hours). The reaction was diluted to 20 mL with 10 mM sodium phosphate, pH 7.4 and loaded onto a 5 mL HiTrap heparin column (Millipore, Billerica, Mass.) equilibrated with 20 mL of 10 mM sodium phosphate, pH 7.4, at a rate of 1 mL/min. The column was washed with 10 mL of 10 mM sodium phosphate, pH 7.4, at a rate of 1 mL/min. […]"}, "[4]": {"test_system": "WT bone marrow precursor cells", "assay": "Osteoclast differentiation (TRAP+ osteoclasts)", "conditions": "100 pg/mL MSP in presence of M-CSF and RANKL", "method": "as §1, with “Coverslips were incubated in TRAP solution for 15 minutes at 37 degrees, washed with 1×PBS and counterstained with DAPI.” left out, “Experiments were performed in triplicate.” left out\nM-CSF and RANKL were present continuously beginning on day 1 until experimental analysis. […] TRAP+ cells were identified by fluorescent TRAP stain and cells with 4 or more nuclei were counted (***p<0.0001). […]"}}}
{"molecule": "B1", "values": [{"measurement": "phosphorylated c-Src in WT osteoclasts", "setting": "[1]", "value": "increased Src phosphorylation"}, {"measurement": "number of surviving osteoclasts without RANKL and M-CSF", "setting": "[2]", "value": "significantly augmented"}, {"measurement": "resorptive capacity of RonTK−/− osteoclasts", "setting": "[3]", "value": "no effect"}, {"measurement": "resorptive capacity of WT osteoclasts", "setting": "[3]", "value": "significant increase"}, {"measurement": "osteoclast differentiation", "setting": "[4]", "value": "did not increase osteoclast differentiation"}]}
